The supplement of paper PMC10567573

B1: PDS5B (parent)
chain: ITYPPGVKEISDKISKEEMVRRLK
B2: ACSBG2 (parent)
chain: TPMTIPEFFRESVNRFGTYPALAS

Variants of: B1
Test: protein stability index of a GFP-peptide fusion (GPS, HEK-293T) (PSI 1-6); higher = more stable
Details: c terminus: a fixed tail appended
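Note: lentivirally expressed fusions sorted by FACS into six bins by GFP to DsRed ratio, PSI derived from sequencing read proportions per bin multiplied by bin number.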

Protein stability index of substitutions, site by site:
S11: I 2.83 | K 4.72 | L 2.38 | M 2.35 | N 3.98 | P 4.29 | Q 4.16 | R 3.4 | T 4.08 | V 2.8 | W 2.67
D12: A 2.75 | C 3.03 | E 3.57 | F 2.71 | G 3.15 | H 3.83 | I 3.04 | K 3.43 | L 3.18 | N 4.05 | P 3.7 | Q 3.29 | R 3.19 | T 3.69 | V 3.3 | W 2.85 | Y 2.46
K13: A 4.08 | C 2.79 | D 4.69 | E 4.34 | F 3.42 | G 3.75 | H 3.7 | I 4.1 | L 3.3 | M 3.76 | N 3.72 | P 4.52 | Q 4.33 | R 4.39 | S 4.35 | T 3.96 | V 3.51 | W 2.84 | Y 3.38
I14: A 4.5 | C 3.27 | E 4.61 | F 3.03 | H 5.35 | L 4.08 | M 4.34 | N 2.93 | Q 5.02 | R 4.38 | S 4.86 | T 4.08 | V 4.02 | W 3.03 | Y 2.68
S15: A 4.27 | C 3.23 | D 4.26 | E 4.81 | F 2.33 | H 4.52 | I 2.73 | M 4.01 | N 3.89 | Q 3.65 | R 3.7 | T 3.66 | W 2.13 | Y 3.46
K16: A 3.92 | C 3.87 | D 3.56 | E 3.87 | F 3 | G 2.83 | H 3.75 | I 2.85 | N 2.63 | S 4.47 | T 3.06 | V 3.36
E17: A 3.14 | C 2.91 | D 3.72 | F 2.41 | G 3.52 | H 4.17 | K 3.82 | L 2.59 | M 2.65 | N 3.75 | P 3.6 | Q 3.17 | S 3.68 | T 4.68 | W 2.75 | Y 2
E18: A 4.37 | C 3.86 | F 2.18 | G 3.86 | H 4.01 | I 2.84 | K 3.17 | L 1.84 | M 3.12 | P 3.69 | Q 4.15 | S 3.21 | T 4.12 | V 3.6 | Y 2.86
M19: A 3.68 | C 4.1 | E 4.79 | F 3.26 | G 4.29 | H 4.74 | I 4.24 | K 4.54 | N 4.76 | P 4.64 | R 4.34 | S 5.02 | T 4.99 | V 4.65 | Y 3.96
V20: A 3.59 | C 3.74 | D 5.06 | F 3.6 | G 4.59 | H 4.19 | I 3.42 | K 4.17 | L 3.49 | M 3.81 | N 4.4 | P 4.26 | Q 4.03 | R 4.61 | S 4.83 | W 3.38 | Y 4.2
R21: A 2.21 | C 3.96 | D 4.46 | E 3.69 | F 3.85 | G 4.75 | H 3.77 | I 3.41 | K 3.34 | L 4.15 | M 3.97 | N 3.44 | P 4.52 | Q 4.28 | S 4.45 | T 4.63 | V 4.11 | W 4.52
R22: A 3.76 | C 2.9 | D 4.92 | F 3.85 | G 4.72 | H 3.88 | I 2.71 | K 3.86 | L 2.28 | M 2.89 | N 4.54 | S 4.24 | T 4.41 | W 2.33 | Y 2.95
L23: A 4.61 | D 5.12 | E 4.84 | G 4.84 | H 4.08 | I 4.51 | K 4.85 | M 3.78 | N 4.49 | P 4.85 | Q 4.75 | R 4.59 | S 5.11 | T 4.79 | V 4.29 | W 3.1 | Y 3.7
K24: A 3.58 | C 3.13 | D 4.78 | E 4.38 | F 2.48 | G 3.77 | H 3.85 | I 3.04 | L 2.81 | M 3.11 | N 3.77 | R 4.2 | S 3.23 | T 4.13 | V 3.61 | W 2.72 | Y 2.67

Variants of: B2
Test: as above
Details: c terminus: a fixed tail appended

Protein stability index of substitutions, site by site:
T1: A 2.28 | C 1.73 | D 2.94 | E 2.12 | F 2.24 | G 2.13 | H 2.07 | I 1.93 | K 3.04 | L 2.08 | M 1.85 | N 2.12 | P 2.43 | Q 2.44 | R 2.34 | S 2.13 | V 1.93 | W 2 | Y 2.27
P2: A 2 | C 1.72 | D 2.65 | E 2.89 | F 1.83 | G 2.12 | H 2.29 | I 1.44 | K 2.01 | L 1.93 | M 2.55 | N 2.2 | Q 2.4 | R 2.12 | S 2.41 | T 2.35 | V 1.98 | W 1.4 | Y 2.88
M3: A 2.34 | C 2.34 | D 2.52 | E 2.44 | F 2.14 | G 2.54 | H 2.37 | I 2.5 | K 2.46 | L 2.09 | N 2.62 | P 2.02 | Q 3.21 | R 2.61 | S 2.8 | T 2.55 | V 2.11 | W 1.69 | Y 2.49
T4: A 2.62 | C 2.36 | D 2.23 | E 2.52 | F 1.65 | G 2.34 | H 2.38 | I 1.88 | K 2.31 | L 1.86 | M 2.17 | N 2.4 | P 2.73 | Q 2.13 | R 2.32 | S 1.99 | V 3.26 | W 2.19 | Y 2.62
I5: A 2.44 | C 2.58 | D 2.7 | E 2.84 | F 2.23 | G 2.84 | H 2.39 | K 2.19 | L 1.97 | M 2.37 | N 2.39 | P 2.5 | Q 3.5 | R 2.97 | S 2.51 | T 2.67 | V 2.03 | W 2.18 | Y 2.05
P6: A 1.8 | C 1.89 | D 1.76 | E 2.15 | F 4.36 | G 2.08 | H 2.38 | I 3 | K 2.15 | L 3.27 | M 3.03 | N 2.05 | Q 1.93 | R 2.08 | S 1.94 | T 1.88 | V 1.41 | W 2.67 | Y 1.99
E7: A 2.26 | C 2.19
